Measurements taken from the supplement of paper PMC10126150.
± gives the standard deviation of the averaged measurements.
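Further: ATP exposure 15 min at 22 °C before imaging.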

These sequences were tested on ATP (assay: switch fluorescence ratio, 500 uM ATP over buffer (Cy3 cluster intensity, sum of 5 cycles each) (fold (ratio)); higher = stronger signal-on switching upon ATP binding; sequences stand for … in TCGTCGGCAGCGTCAGATGTGTATAAGAGACAGTTTTTTTTTTTTTTTTTTTTTTTTT…TC). Conditions: aptamer strand: ATP DNA aptamer (quencher-CACCTGGGGGAGTATTGCGGAGGAAGG + anchor), 100 nM annealed; ATP concentration: 500 uM.
In short: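 Switching-strand clusters labelled with Cy3 on a modified Illumina MiSeq flow-cell were annealed to 100 nM quencher-labelled ATP aptamer, imaged in selection buffer, and re-imaged after 15 min with 500 uM ATP at 22 °C. This was done over five cycles with NaOH stripping and re-annealing in between. The fluorescence ratio is summed target-cycle over summed buffer-cycle Cy3 intensity per cluster, averaged per switch-domain sequence, excluding clusters outside 100-1000 RFU.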
TGCATTACGT showed a switch fluorescence ratio of 1.35 ± 0.015.
For TGCATTATTA, the switch fluorescence ratio was 0.995 ± 0.049.
Sequence TGCATTGCTG has a switch fluorescence ratio of 1.01 ± 0.038.
TGCATTTCAG was tested, and the switch fluorescence ratio was 1 ± 0.025.
TGCCAATGTG gave a switch fluorescence ratio of 0.989 ± 0.013.
For TGCCACGTAA, the switch fluorescence ratio was 1.3 ± 0.065.
With TGCCACTGGG the switch fluorescence ratio was 1.06 ± 0.019.
For TGCCAGTTGT, the switch fluorescence ratio was 1.006 ± 0.0076.
In the case of TGCCGAGTGC, the switch fluorescence ratio is reported as 1.046 ± 0.0083.
In the case of TGCCGCTTAA, the switch fluorescence ratio is reported as 1.193 ± 0.0089.
TGCCGGAATA was tested, and the switch fluorescence ratio was 1.38 ± 0.041.
TGCCGGGCTT gave a switch fluorescence ratio of 1.01 ± 0.042.
In the case of TGCCGGGGAT, the switch fluorescence ratio is reported as 1.01 ± 0.015.
TGCCGGGGGT gave a switch fluorescence ratio of 1.03 ± 0.088.
Work on TGCCGGGGTC yielded a switch fluorescence ratio of 1 ± 0.048.
TGCCGGTTGC was tested, and the switch fluorescence ratio was 0.99 ± 0.12.
Work on TGCCTAATTG yielded a switch fluorescence ratio of 0.977 ± 0.026.
For TGCCTACGGG, the switch fluorescence ratio was 1.02 ± 0.028.
In the case of TGCCTCGGCG, the switch fluorescence ratio is reported as 1.0022 ± 0.00021.
In the case of TGCCTGGCAG, the switch fluorescence ratio is reported as 1.08 ± 0.1.
With TGCCTGGCTG the switch fluorescence ratio was 0.99 ± 0.05.
TGCCTTGGGG showed a switch fluorescence ratio of 1.07 ± 0.16.
Work on TGCGAACACT yielded a switch fluorescence ratio of 1.002 ± 0.0064.
TGCGAGGGCA gave a switch fluorescence ratio of 1.02 ± 0.0087.
With TGCGATAGAA the switch fluorescence ratio was 0.994 ± 0.043.
TGCGATTTAC gave a switch fluorescence ratio of 1.15 ± 0.024.
TGCGCAAGGG was tested, and the switch fluorescence ratio was 1.27 ± 0.31.
In the case of TGCGGAGTAC, the switch fluorescence ratio is reported as 1.33 ± 0.14.
Sequence TGCGGCCCAT has a switch fluorescence ratio of 0.979 ± 0.016.
TGCGGCGGGG showed a switch fluorescence ratio of 1.07 ± 0.035.
TGCGGCTTCA showed a switch fluorescence ratio of 1.01 ± 0.016.
Work on TGCGGGATTA yielded a switch fluorescence ratio of 1.1 ± 0.18.
With TGCGGGGGCA the switch fluorescence ratio was 1.02 ± 0.025.
For TGCGGGGGGA, the switch fluorescence ratio was 1.03 ± 0.036.
Sequence TGCGGGGGTA has a switch fluorescence ratio of 0.999 ± 0.019.
TGCGGGGTTT was tested, and the switch fluorescence ratio was 1.02 ± 0.054.
TGCGGGTGCT was tested, and the switch fluorescence ratio was 1.04 ± 0.042.
TGCGGGTTTT was tested, and the switch fluorescence ratio was 1.02 ± 0.016.
TGCGGTATGG was tested, and the switch fluorescence ratio was 1.03 ± 0.017.
TGCGGTTGTT gave a switch fluorescence ratio of 0.999 ± 0.046.
Sequence TGCGGTTTGA has a switch fluorescence ratio of 1.01 ± 0.012.
Work on TGCGTAAGGG yielded a switch fluorescence ratio of 1.03 ± 0.011.
In the case of TGCGTCGCCT, the switch fluorescence ratio is reported as 1.013 ± 0.0049.
In the case of TGCGTGGTGG, the switch fluorescence ratio is reported as 1.03 ± 0.019.
With TGCGTTAAGG the switch fluorescence ratio was 1 ± 0.031.
Sequence TGCGTTATCG has a switch fluorescence ratio of 1.025 ± 0.0072.
Sequence TGCGTTCTGG has a switch fluorescence ratio of 1.048 ± 0.007.
TGCTAACTCG was tested, and the switch fluorescence ratio was 1 ± 0.018.
Work on TGCTAACTTT yielded a switch fluorescence ratio of 0.999 ± 0.052.
TGCTAATTGA was tested, and the switch fluorescence ratio was 1.01 ± 0.037.
For TGCTACAGTT, the switch fluorescence ratio was 0.985 ± 0.024.
TGCTACCGGG showed a switch fluorescence ratio of 1.058 ± 0.0016.
With TGCTAGGCTA the switch fluorescence ratio was 1.02 ± 0.025.
TGCTAGGGGC was tested, and the switch fluorescence ratio was 1.07 ± 0.036.
Sequence TGCTATATTT has a switch fluorescence ratio of 1.01 ± 0.024.
Work on TGCTATTGGT yielded a switch fluorescence ratio of 1.03 ± 0.035.
TGCTCATTTT gave a switch fluorescence ratio of 0.992 ± 0.032.
For TGCTCGGGCA, the switch fluorescence ratio was 1.014 ± 0.0072.
For TGCTCGGGGA, the switch fluorescence ratio was 1.021 ± 0.0023.
In the case of TGCTGACGGT, the switch fluorescence ratio is reported as 0.993 ± 0.029.
TGCTGAGACA showed a switch fluorescence ratio of 1.01 ± 0.012.
With TGCTGCAAAG the switch fluorescence ratio was 0.9943 ± 0.0049.
With TGCTGGTAGC the switch fluorescence ratio was 0.995 ± 0.042.
TGCTGGTCGG was tested, and the switch fluorescence ratio was 0.985 ± 0.035.
TGCTGGTGCC was tested, and the switch fluorescence ratio was 1.02 ± 0.013.
Sequence TGCTGTGGGG has a switch fluorescence ratio of 1 ± 0.029.
Work on TGCTTAAGTT yielded a switch fluorescence ratio of 0.999 ± 0.021.
TGCTTACAAA was tested, and the switch fluorescence ratio was 1.01 ± 0.027.
TGCTTACCCA showed a switch fluorescence ratio of 1.03 ± 0.017.
For TGCTTAGGAA, the switch fluorescence ratio was 1.005 ± 0.0072.
TGCTTAGTTC showed a switch fluorescence ratio of 0.959 ± 0.046.
TGCTTCATTT gave a switch fluorescence ratio of 1.023 ± 0.0018.
TGCTTCGACG was tested, and the switch fluorescence ratio was 0.9996 ± 0.0012.
With TGCTTCTATA the switch fluorescence ratio was 1.01 ± 0.051.
TGCTTGAA was tested, and the switch fluorescence ratio was 0.962 ± 0.021.
Sequence TGCTTGATGG has a switch fluorescence ratio of 0.9851 ± 0.0044.
For TGCTTGCGGA, the switch fluorescence ratio was 1.02 ± 0.023.
In the case of TGCTTGTTCG, the switch fluorescence ratio is reported as 1.029 ± 0.0097.
TGCTTTAAGG showed a switch fluorescence ratio of 1.02 ± 0.04.
TGCTTTAAGT showed a switch fluorescence ratio of 0.9912 ± 0.0029.
TGCTTTCCTT gave a switch fluorescence ratio of 1.035 ± 0.0034.
TGCTTTGCCT was tested, and the switch fluorescence ratio was 1.03 ± 0.013.
TGCTTTTATT showed a switch fluorescence ratio of 1 ± 0.022.
For TGCTTTTGTC, the switch fluorescence ratio was 1.01 ± 0.078.
Sequence TGCTTTTTAG has a switch fluorescence ratio of 0.988 ± 0.029.
